According to paper PMC4210639:
pKd: −log10 of the molar value.

Biological target: FLRT^LRR (SPR test of FLRT^LRR-FLRT^LRR binding)
Test: SPR

- pKd: < 4.00
Substance: FLRT^LRR (SPR test of FLRT^LRR-FLRT^LRR binding)
